Test results taken from publication PMC9881204, “Robust Covalent Aptamer Strategy Enables Sensitive Detection and Enhanced Inhibition of SARS-CoV-2 Proteins”.

Tests used:
[1] = target: T1, SARS-CoV-2 spike RBD, wild type (SARS-CoV-2 (wild type), UniProt P0DTC2 319-541); experiment: flow cytometry, RBD-coated Ni beads; room temperature; apparent (covalent cross-link); SPR: PBS + 5 mM MgCl2, 300 mM NaCl, 400 nM BLib, 2 ug/mL salmon sperm DNA, 25 C; flow cytometry in binding buffer, RT; neutralization in 10% FBS, 37 C; cross-linking in PBS pH 7.4 (SI: HEPES), RT; settings: protein: commercial
[2] = target: T1, SARS-CoV-2 spike RBD, wild type; experiment: competition with ACE2-coated beads, flow cytometry; 10% FBS, 37 C; SPR: PBS + 5 mM MgCl2, 300 mM NaCl, 400 nM BLib, 2 ug/mL salmon sperm DNA, 25 C; flow cytometry in binding buffer, RT; neutralization in 10% FBS, 37 C; cross-linking in PBS pH 7.4 (SI: HEPES), RT; settings: protein: commercial
[3] = target: T1, SARS-CoV-2 spike RBD, wild type; experiment: flow cytometry, RBD-coated Ni beads; room temperature; SPR: PBS + 5 mM MgCl2, 300 mM NaCl, 400 nM BLib, 2 ug/mL salmon sperm DNA, 25 C; flow cytometry in binding buffer, RT; neutralization in 10% FBS, 37 C; cross-linking in PBS pH 7.4 (SI: HEPES), RT; settings: protein: commercial
[4] = target: T2, SARS-CoV-2 nucleocapsid protein (NP) (SARS-CoV-2, UniProt P0DTC9 1-419); experiment: SPR; Kd value only in Fig 3a; about 10-fold weaker than antibodies; SPR: PBS + 5 mM MgCl2, 300 mM NaCl, 400 nM BLib, 2 ug/mL salmon sperm DNA, 25 C; flow cytometry in binding buffer, RT; neutralization in 10% FBS, 37 C; cross-linking in PBS pH 7.4 (SI: HEPES), RT; settings: protein: commercial; tags: His; chain copies: 2; label: 3' biotin
[5] = target: T2, SARS-CoV-2 nucleocapsid protein (NP); experiment: SPR; value only in Fig 3a; covalent; SPR: PBS + 5 mM MgCl2, 300 mM NaCl, 400 nM BLib, 2 ug/mL salmon sperm DNA, 25 C; flow cytometry in binding buffer, RT; neutralization in 10% FBS, 37 C; cross-linking in PBS pH 7.4 (SI: HEPES), RT; settings: protein: commercial; tags: His; chain copies: 2; label: 3' biotin

ATTACCGATGGCTTGTTTGTAATGTAGGGTTCCGTCGGAT (ssDNA, 5' NH2 conjugated to disuccinimidyl suberate (NHS ester)) [NHS-RApt (CRApt)]
Kd [1]: 0.24 nM | IC50 [2]: 0.42 nM

ATTACCGATGGCTTGTTTGTAATGTAGGGTTCCGTCGGAT (ssDNA) [RApt]
Kd [3]: 5.91 nM

B1: B61 (ssDNA)
DNA: GCTGGATGTTGACCTTTACAGATCGGATTCTGTGGGGCGTTAAACTGACACATCCAGCTTTTTTTT
binding result [4]: binds

B2: NHS-B61 (ssDNA)
DNA: GCTGGATGTTGACCTTTACAGATCGGATTCTGTGGGGCGTTAAACTGACACATCCAGCTTTTTTTT
modifications: 5' NH2 conjugated to disuccinimidyl suberate (NHS ester)
binding result [5]: binds

B3: B15 (ssDNA)
DNA: GCTGGATGTTCATGCTGGCAAAATTCCTTAGGGGCACCGTTACTTTGACACATCCAGCTTTTTTTT
binding result [4]: binds

B4: NHS-B15 (ssDNA)
DNA: GCTGGATGTTCATGCTGGCAAAATTCCTTAGGGGCACCGTTACTTTGACACATCCAGCTTTTTTTT
modifications: 5' NH2 conjugated to disuccinimidyl suberate (NHS ester)
binding result [5]: binds
